Data: article doi:10.1101/2021.10.20.465124v1

Substrate: COc1cc2ccc(=O)oc2cc1O[C@@H]1O[C@H](CO)[C@@H](O)[C@H](O)[C@H]1O
Experiment: glucose release, D-Glucose HK assay, substrate inhibition fit
Type: biochemical, Streptomyces scabiei
Settings: HEPES 50 mM pH 7.5, 40 °C, 4 min, substrate inhibition model

B1: His6-BglC (Streptomyces scabiei 87.22) (protein)
chain: MPEPVNPATPVTFPPAFLWGAATSAYQIEGAVREDGRTPSIWDTFSHTPGKTAGGENGDIAVDHYHRYRDDVAMMADLGLNAYRFSVSWSRVQPTGRGPAVQKGLDFYRRLVDELLAKGIKPAVTLYHWDLPQELEDAGGWPERDIVHRFAEYARIMGEALGDRVEQWITLNEPWCTAFLGYGSGVHAPGRTDPVASLRAAHHLNVAHGLGVSALRSAMPARNSIAVSLNSSVVRPITSSPEDRAAARKIDDLANGVFHGPMLHGAYPETLFAATSSLTDWSFVRDGDVATAHQPLDALGLNYYTPALVGAADAGLEGPRADGHGASEHSPWPAADDVLFHQTPGERTEMGWTIDPTGLHELIMRYAREAPGLPMYVTENGAAYDDKMDADGRVHDPERIAYLHGHLRAVRRAIAEGADVRGYYLWSLMDNFEWAYGYGKRFGAVYVDYATLTRTPKSSAHWYGQAAKTGALPPLAPAPA
With B1 the Km was 300 µM and the kcat was 9.4 s⁻¹.
